According to article PMC8799719:

Molecular target: insoluble type I collagen fibers from bovine achilles tendon, P02453;P02465
Experiment: fluorescence detection of EGFP fusion binding to collagen
Conditions: parent: est. 100; read off a plot

Substance	percent of parent
EGFP-PPC (PPC domain of VhaC fused to EGFP) D751A	3%
EGFP-PPC (PPC domain of VhaC fused to EGFP) E755A	51%
EGFP-PPC (PPC domain of VhaC fused to EGFP) E778A	21%
EGFP-PPC (PPC domain of VhaC fused to EGFP) K753A	100%
EGFP-PPC (PPC domain of VhaC fused to EGFP) W729A	58%
EGFP-PPC (PPC domain of VhaC fused to EGFP) W761A	7%
EGFP-PPC (PPC domain of VhaC fused to EGFP) W770A	100%
EGFP-PPC (PPC domain of VhaC fused to EGFP) W789A	19%
EGFP-PPC (PPC domain of VhaC fused to EGFP) Y756A	9%
EGFP-PPC (PPC domain of VhaC fused to EGFP) Y788A	73%
EGFP-PPC (PPC domain of VhaC fused to EGFP) Y791A	13%

Molecular target: insoluble type I collagen fibers from bovine achilles tendon, P02453;P02465
Experiment: fluorescence detection of EGFP fusion binding to collagen fibers
Conditions: parent: est. 100; read off a plot

Substance	percent of parent
activator domain-EGFP (VhaC activator domain fused to EGFP) D207A	70%
activator domain-EGFP (VhaC activator domain fused to EGFP) E294A	85%
activator domain-EGFP (VhaC activator domain fused to EGFP) F107A	20%
activator domain-EGFP (VhaC activator domain fused to EGFP) F160A	86%
activator domain-EGFP (VhaC activator domain fused to EGFP) F286A	51%
activator domain-EGFP (VhaC activator domain fused to EGFP) N290A	88%
activator domain-EGFP (VhaC activator domain fused to EGFP) R153A	32%
activator domain-EGFP (VhaC activator domain fused to EGFP) R293A	93%
activator domain-EGFP (VhaC activator domain fused to EGFP) W234A	69%
activator domain-EGFP (VhaC activator domain fused to EGFP) Y157A	42%
